Test results: the DeepSol protein solubility set

test: soluble on expression in E. coli; label from the status in PepcDB or PDB records

Sequence	soluble on expression in E. coli
MLNVVKRDGRQVVFDSNKIFNAIKGAADEIGYDIKQSDILELTQKVIGRVEDLKIREISVEEVQNLVEEVLLENGNKEIGMAYCTYRKERTKVRE	not soluble
MTPTPLHSITPFSMLDFPSMLSCILWFSGCNLACSYCYNPEFLKESGKIDLEGLLSFLRSRVGLLEGVVFSGGEATLFAGLPLWMEEVRSLGFKIKLDTNGTNPAMLKELLQKGYLDYVAMDFKGKEERFGMITGREFYGRFLESLEILLSSSIPFEIRTTVHSYLLQEEDIAEMAALLKERG	not soluble
MSLATTHLDVCAVVPAAGFGRRMQTECPKQYLSIGNQTILEHSVHALLAHPRVKRVVIAISPGDSRFAQLPLANHPQITVVDGGDERADSVLAGLKAAGDAQWVLVHDAARPCLHQDDLARLLALSETSRTGGILAAPVRDTMKRAEPGKNAIAHTVDRNGLWHALTPQFFPRELLHDCLTRALNEGATITDEASALEYCGFHPQLVEGRADNIKVTRPEDLALAEFYLTRTIHQENT	soluble
MGSDKIHHHHHHMEYTSLIFPGDKIDIFASGLSDNSTSYKSSFSDKLTDSMWEITMPVDSGRVVLFQLGTQFDFIIYTQNKTILKSSAIVRQRYRKENMYFLAIELINNLEKIQRRQFFRLPCTIDMDFYEVRYDDKAESELEFCKKMYKNHAINSKNMNTVKSVILDISGGGIRFSLSTPLEEGTYFMAQFSLALEECTQQFNIVCKVINCTQSLDYADRYFARSKFIFDRMTEREKIVRFVFEEERRIRRREME	not soluble
NLSELTPYILCSICKGYLIDATTITECLHTFCKSCIVRHFYYSNRCPKCNIVVHQTQPL	soluble
EVPTIDGRAKIRIEAGTQPGKMLRLRNKGLPSVNGYGMGDQLVNVNVYIPESIDAKDEQAIAAMENSDSFKPTDAARKDIDKKYREMLD	not soluble
VCLEFQDCGVGLNAAQFKQLLISAVKDLFGEVDAALPLDILTYEEKTLSAILRICSSGLVKLWSSLTLLGSYKGKKCAFRVIQVSPFLLALSGNSRELVLD	not soluble
LFKPNYHFFPITGWMNDPNGLIFWKGKYHMFYQYNPRKPEWGNICWGHAVSDDLVHWRHLPVALYPDDETHGVFSGSAVEKDGKMFLVYTYYRDPTHNKGEKETQCVVMSENGLDFVKYDGNPVISKPPEEGTHAFRDPKVNRSNGEWRMVLGSGKDEKIGRVLLYTSDDLFHWKYEGAIFEDETTKEIDCPDLVRIGEKDILIYSITSTNSVLFSMGELKEGKLNVEKRGLLDHGTDFYAAQTFFGTDRVVVIGWLQSWLRTGLYPTKREGWNGVMSLPRELYVENNELKVKPVDELLALRKRKVFETAKSGTFLLDVKENSYEIVCEFSGEIELRMGNESEEVVITKSRDELIVDTTRSGVSGGEVRKSTVEDEATNRIRAFLDSCSVEFFFNDSIAFSFRIHPENVYNILSVKSNQVKLEVFELENIWL	soluble
MHHYRVSGWTLATEIPLPHLFPCSAPAGEAAADITLRQGPVPPPPVPLRLDRDGIQVGADGHTVIDIPNCVRIGLTGGRDIMVDPAPGASWPEIQTWLLGPGLGVICHQRGVLPLHACAIRTGKGGLAIVGNSGAGKSTTATALVQRGHRLLGDDVLVVDPDTGLAQPCFPMVKLWDSSRSALDIGQEGQQSVGGKIGKWHMPMLAAFDPVPRPLSAIVHLRADPAARRPVLTRWPRPHAAAVLDAMTYRVYLADALHGRRHVLSAATRLAAHVPVWELVRTADFADLAEMLDMLEGLAGALEHHHHHH	not soluble
MSLGLIVQKFGGTSVGSVEKIQNAANRAIAEKQKGHQVVVVVSAMGKSTDELVSLAKAISDQPSKREMDMLLATGEQVTISLLSMALQEKGYDAVSYTGWQAGIRTEAIHGNARITDIDTSVLADQLEKGKIVIVAGFQGMTEDCEITTLGRGGSDTTAVALAAALKADKCDIYTDVPGVFTTDPRYVKSARKLEGISYDEMLELANLGAGVLHPRAVEFAKNYQVPLEVRSSTETEAGTLIEEESSMEQNLIVRGIAFEDQITRVTIYGLTSGLTTLSTIFTTLAKRNINVDIIIQTQAEDKTGISFSVKTEDADQTVAVLEEYKDALEFEKIETESKLAKVSIVGSGMVSNPGVAAEMFAVLAQKNILIKMVSTSEIKVSTVVSENDMVKAVESLHDAFELSKHPSAVEGHHHHHH	soluble
TMEIPINRTYSCFLEGPEAPKTPACQAAKQAGGTQAMYDWNGINQNPSGDNHQAVVPDGTLCGGGKAEFKGFNLAREDWRTTNIVPDANGNYEFIYKATAPHATKYFKFYVTKNGWNPTQALKWSDLELFGTVNGNPQQDAGKRYHMTLKLPQGKTGKHIIFNVWKRSDSEEAFYSCSDVNFGG	not soluble
MPKFDVSKSDLERLIGRSFSIEEWEDLVLYAKCELDDVWEENGKVYFKLDSKDTNRPDLWSAEGVARQIKWALGIEKGLPKYEVKKSNVTVYVDEKLKDIRPYGVYAIVEGLRLDEDSLSQMIQLQEKIALTFGRRRREVAIGIFDFDKIKPPIYYKAAEKTEKFAPLGYKEEMTLEEILEKHEKGREYGHLIKDKQFYPLLIDSEGNVLSMPPIINSEFTGRVTTDTKNVFIDVTGWKLEKVMLALNVMVTALAERGGKIRSVRVVYKDFEIETPDLTPKEFEVELDYIRKLSGLELNDGEIKELLEKMMYEVEISRGRAKLKYPAFRDDIMHARDILEDVLIAYGYNNIEPEEPKLAVQGRGDPFKDFEDAIRDLMVGFGLQEVMTFNLTNKEVQFKKMNIPEEEIVEIANPISQRWSALRKWILPSLMEFLSNNTHEEYPQRIFEVGLATLIDESRETKTVSEPKLAVALAGTGYTFTNAKEILDALMRHLGFEYEIEEVEHGSFIPGRAGKIIVNGRDIGIIGEVHPQVLENWNIEVPVVAFEIFLRPLYRH	soluble
MISATYRLQLNKNFNFGDVIDNLWYFKDLGVSHLYLSPVLMASPGSNHGYDVIDHSRINDELGGEKEYRRLIETAHTIGLGIIQDIVPNHMAVNSLNWRLMDVLKMGKKSKYYTYFDFFPEDDKIRLPILGEDLDTVISKGLLKIVKDGDEYFLEYFKWKLPLTEVGNDIYDTLQKQNYTLMSWKNPPSYRRFFDVNTLIGVNVEKDHVFQESHSKILDLDVDGYRIDHIDGLYDPEKYINDLRSIIKNKIIIVEKILGFQEELKLNSDGTTGYDFLNYSNLLFNFNQEIMDSIYENFTAEKISISESIKKIKAQIIDELFSYEVKRLASQLGISYDILRDYLSCIDVYRTYANQIVKECDKTNEIEEATKRNPEAYTKLQQYMPAVYAKAYEDTFLFRYNRLISINEVGSDLRYYKISPDQFHVFNQKRRGKITLNATSTHDTKFSEDVRMKISVLSEFPEEWKNKVEEWHSIINPKVSRNDEYRYYQVLVGSFYEGFSNDFKERIKQHMIKSVREAKINTSWRNQNKEYENRVMELVEETFTNKDFIKSFMKFESKIRRIGMIKSLSLVALKIMSAGIPDFYQGTEIWRYLLTDPDNRVPVDFKKLHEILEKSKKFEKNMLESMDDGRIKMYLTYKLLSLRKQLAEDFLKGEYKGLDLEEGLCGFIRFNKILVIIKTKGSVNYKLKLEEGAIYTDVLTGEEIKKEVQINELPRILVRM	soluble
MEEALKENIMGALEQVVDPELGVDIVNLGLVYDVDMDEDGLTHITMTLTSMGCPLAPIIVDEVKKALADLPEVKDTEVHIVWNPPWTRDKMSRYAKIALGIQLEHHHHHH	not soluble
MTDQPDVQRVQTASRDNSTVIDLREYKTNKDPLPVTFHRRELDAILRIYGRMVGEGEWRDYAIDHLKEKAVFSVFKRSGEMPLYRIEKNPKLATKQGAYCVVNVDGRILKRGHELPQVLKVFDKVLKLIE	not soluble
MNVMTEKKKLVVWVPLPPNSSWRGEGIAQTIENIVRNISPERKIEIVVSSKHAEMLVGLEKSNPNISVLTLGFRGKSTKKTIGYVSLNEVEKDSLWDLVIAKLPIIPAIFRKVGMYVSQLEYLLSLYIYSHLQRRGRFSSNNCRVWLPTPIIPYTHLLGGEKFVSFWDPFVFEYNKEFPLTAEYFVKKLSKHFSNASAIITQSRANKDYLETVMGIESSKINVIYNGSPDYSEFKKQQSNLSFSEVWSKSEFSGASKKAAFEALVNHQLNFSVLWRLLTKNKVSNRKIVLISTQNRPYKGFDQLFVLINELCLRRDNYDFIFTCNVPTKLKERYPSLYERIHEVTRVDNYLHASLYLMSDIVLHPSNVEGGLGAYPQYEASSVGKPSLINTGRHVNEMAEEGFDVDLLSSNFVNTKETVDKIEKLINSEEYMRQNIDAINRLKISWKESASNYENVFFGNENA	not soluble
MAEPLLVVGLGNPGANYARTRHNLGFVVADLLAARLGAKFKAHKRSGAEVATGRSAGRSLVLAKPRCYMNESGRQIGPLAKFYSVAPANIIVIHDDLDLEFGRIRLKIGGGEGGHNGLRSVVAALGTKDFQRVRIGIGRPPGRKDPAAFVLENFTPAERAEVPTICEQAADATELLIEQGMEPAQNRVHAWKLAAALEHHHHHH	soluble
MSWVQLAGHTGSFKAAGTSGLILKRCSEPERYCLARLMADALRGCVPAFHGVVERDGESYLQLQDLLDGFDGPCVLDCKMGVRTYLEEELTKARERPKLRKDMYKKMLAVDPEAPTEEEHAQRAVTKPRYMQWREGISSSTTLGFRIEGIKKADGSCSTDFKTTRSREQVLRVFEEFVQGDEEVLRRYLNRLQQIRDTLEVSEFFRRHEVIGSSLLFVHDHCHRAGVWLIDFGKTTPLPDGQILDHRRPWEEGNREDGYLLGLDNLIGILASLAER	soluble
SDPEISEQDEEKKKYTSVCVGREEDIRKSERMTAVVHDREVVIFYHKGEYHAMDIRCYHSGGPLHLGEIEDFNGQSCIVCPWHKYKITLATGEGLYQSINPKDPSAKPKWCSKGVKQRIHTVKVDNGNIYVTLSKEPFKCDSDYYATGEFKVIQSSS	soluble
MDHGVVLLSDDQGLQWRQASSVPLSTPLTGVSFVDAKRGWAVGHWGAILITTDGGESWQVQRLATEEDRPLFAVHFFNARQGVAVGLWSLVLTTEDGGQTWSEQPLQAPPGAKRADLNLMGLFADSRGTLYATAEHGQVLHSEDQGKNWRYLDTGYEGTLWAGAVLADGRLLLGGQRGTLLQGSADGKGFHRVPTQSKGSVTCVAVAGSRVLAVGLDGLSVQSSDGGHSFQETQTADGLSLTAALFNAEGVPVLFSRRGVMPYQELEHHHHHH	not soluble
MQKAVVMDEQAIRRALTRIAHEIIERNKGIDGCVLVGIKTRGIYLARRLAERIEQIEGASVPVGELDITLYRDDLTVKTDDHEPLVKGTNVPFPVTERNVILVDDVLFTGRTVRAAMDAVMDLGRPARIQLAVLVDRGHRELPIRADFVGKNVPTSRSELIVVELSEVDGIDQVSIHEK	soluble
MGSDKIHHHHHHMTLSSSFAQLKDFKFKFYGQIRTDFYYNSRANEETVDGLFYMYPKDEVLDGNGEDLNATSNSNFYTLYSRLGLDVAGPKLGTAKTSAKVEVDFRGSGTSYSTIRLRHAYFNLDWGKSAVLVGQTWHPLFGDVSPQILNLSVGAPFQPFSRAPQIRYRFNNKHLQLTGALVWQSQYLSQGPAGKSQEYIKKSNIPEIYVGADYKNGGFLAGAGIEMISLKPRTQSSWEEKTFDPTTNSTISIPHTYKVDERITTLSYEAHVKYTNKNWFIGAKSVLGSNLTQASGLGGFGIKHIDNKTKEQEYTPIRFSSSWLNVVYGQKWKPGIFVGYAKNLGTSDELVSEKLYGTGTNLDKLVTAGAELTYNVPHWKFGVEYTLSSAWYGKLDKSDGKIIDTHSVSNNRIVAVAMFMF	not soluble
